T1: monkey CD22 protein (ACROBiosystems, SI2-R52Ha) (monkey (rhesus monkey in paragraph 148), UniProt H9G1X2 18-686)
T1 construct: extracellular domain; also called monkey CD22-ECD; monkey CD22-ECD-His
T1 sequence: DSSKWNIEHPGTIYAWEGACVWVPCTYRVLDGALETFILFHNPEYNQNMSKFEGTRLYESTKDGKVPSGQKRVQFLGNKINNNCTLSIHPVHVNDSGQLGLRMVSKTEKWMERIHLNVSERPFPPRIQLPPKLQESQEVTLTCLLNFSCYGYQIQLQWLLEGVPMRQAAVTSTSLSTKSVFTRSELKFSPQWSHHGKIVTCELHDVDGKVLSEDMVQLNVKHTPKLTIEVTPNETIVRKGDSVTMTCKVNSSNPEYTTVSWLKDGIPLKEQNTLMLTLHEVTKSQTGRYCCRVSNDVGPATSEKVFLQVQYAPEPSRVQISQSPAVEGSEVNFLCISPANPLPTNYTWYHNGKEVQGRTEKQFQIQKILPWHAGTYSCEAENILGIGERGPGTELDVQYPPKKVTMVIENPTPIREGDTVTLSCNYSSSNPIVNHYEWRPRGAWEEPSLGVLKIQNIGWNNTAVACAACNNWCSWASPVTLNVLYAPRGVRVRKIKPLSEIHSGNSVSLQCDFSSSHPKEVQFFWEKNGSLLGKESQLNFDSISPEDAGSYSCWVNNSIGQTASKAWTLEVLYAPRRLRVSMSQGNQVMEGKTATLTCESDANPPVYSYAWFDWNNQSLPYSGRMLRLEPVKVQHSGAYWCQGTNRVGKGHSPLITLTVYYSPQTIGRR


Biological target: T1, monkey CD22 protein (ACROBiosystems, …)
Test: ELISA, monkey CD22-ECD-His coated
Method in brief: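 Coat 2 μg/mL CD22 in PBS, overnight 4° C; block PBS/2% BSA 2 h RT. Ab 2 h 37° C; HRP anti-species secondary 2 h 37° C. TMB 30 min RT, stop 1.0 N HCl.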

Row | Binder | binding result
1 | F2.180.16 (antibody, human IgG1, lambda, V domains shown, Human-murine chimeric IgG1, lambda) VH: EVKLVESGGGLVLPGGSLKISCAASGFTFSDYYMYWIRQTPDKRLEWVAYISNTGYSTFYPDSVKGRFTVSRDNAKNTLYLQMSRLQSEDTAMYYCARHGILYAMDYWGQGTSVTVSS VL: QPVLTQSSSASFSLGASAKLTCTLSSQYSTYTIGWYQQQPLKPPKYVMELKHDGSRHTGDGIPDRFSGSSSGADRYLSISNIQPEDEATYICGVGDTIKEQFMYVFGGGTKVTVLG | no binding (tested: 100 nM)
2 | F2.343.16 (antibody, human IgG1, lambda, V domains shown, Human-murine chimeric IgG1, lambda) VH: QVQLKQSGPGLVQPSQSLSITCTVSGFSLTGYGVQWVRQSPGKGLEWLGVIWGGGGTDYNAAFISRLNIIKDNSKSQVFFKMNSLQADDTAIYYCARYSKYGHFDVWGTGTAVTVSS VL: QAVVTQESALTTSPGETVTLTCRSSTGAVTTSNYANWVQEKPDHLFTGLIGGTYNRVPGVPARFSGSLIGDKAALTITGAQTEDEAIYFCALWYSNHFWVFGGGTKLTVLG | no binding (tested: 100 nM)
3 | F1.60.9 (antibody, human IgG1, kappa, V domains shown, Human-murine chimeric IgG1, kappa) VH: QVQLKESGPGLVAPSQSLSITCTVSGLSLNNYGVSWVRQPPGKGLEWLGVIWGDGSTNYHSALISRLSISKDNSKSQVFLKLNSLHTDDTATYYCAINWGDYWGQGTTLIVSS VL: DIKMTQSPSSMNASLGERVTITCKASQDINSYLSWFQQKPGKSPKILIYRANRLIDGVPSRFSGSGSGQDYSLTISSLEYEDMGIYYCLQYGVFPLTFGAGTKLELKR | no binding (tested: 100 nM)
